Test results as given in patent US11278600B2, “Human alpha-galactosidase variants” (Codexis, Inc., priority 2014, dated 2022).
Positions count from the first letter of the chain named.

B1: 370 (protein)
chain: LDNGLARTPTMGWLHWERFMCNLDCQEEPDSCISEKLFMEMAEQMVSEGWKDAGYEYLCIDDCWMAPQRDSEGRLQADPQRFPHGIRQLANYVHSKGLKLGIYADVGNKTCAGFPGSFGYYDIDAQTFADWGVDLLKFDGCYCDSLENLADGYKHMSLALNRTGRSIVYSCEWPLYMWPFQKPNYTEIRQYCNHWRNFADIDDSWKSIKSILDWTSRNQERIVDVAGPGGWNDPDMLVIGNFGLSWDQQVTQMALWAIMAAPLFMSNDLRHISPQAKALLQDKDVIAINQDPLGKQGYQLRKGDNFEVWERPLSGDAWAVAIINRQEIGGPRSYTIPVASLGKGVACNPACFITQLLPVKRQLGFYNWTSRLKSHINPTGTVLLQLENTMQMSLKDLL
modifications: Synthetic Polypeptide sequence of Variant No. 370 of mature Human GLA
B2: 478 (protein)
chain: LDNGLARTPTMGWLHWERFMCNLDCQEEPDSCISEKLFMEMAERMVSEGWKDAGYEYLCIDDCWMAPQRDSEGRLQADPQRFPHGIRQLANYVHSKGLKLGIYADVGNKTCAGFPGSFGYYDIDAQTFADWGVDLLKFDGCYCDSLENLADGYKHMSLALNRTGRSIVYSCEWPLYMWPFQKPNYTEIRQYCNHWRNFADIDDSWKSIKSILDWTSFNQERIVDVAGPGGWNDPDMLVIGNFGLSWNQQVTQMALWAIMAAPLFMSNDLRHISPQAKALLQDKDVIAINQDPLGKQGYQLRQGDNFEVWERPLSGLAWAVAMINRQEIGGPRSYTIAVASLGKGVACNPACFITQLLPVKRKLGFYEWTSRLRSHINPTGTVLLQLENTMQSSLKDLL
modifications: Synthetic Polypeptide sequence of Variant No. 478 of mature Human GLA
B3: 485 (protein)
chain: B2 chain with S392W
modifications: Synthetic Polypeptide sequence of Variant No. 485 of mature Human GLA
B4: 479 (protein)
chain: B2 chain with S392F
modifications: Synthetic Polypeptide sequence of Variant No. 479 of mature Human GLA
B5: 480 (protein)
chain: B2 chain with M390R, S392M
modifications: Synthetic Polypeptide sequence of Variant No. 480 of mature Human GLA
B6: 486 (protein)
chain: B2 chain with M390C, S392M
modifications: Synthetic Polypeptide sequence of Variant No. 486 of mature Human GLA
B7: 481 (protein)
chain: B2 chain with M390G, S392M
modifications: Synthetic Polypeptide sequence of Variant No. 481 of mature Human GLA
B8: 482 (protein)
chain: B2 chain with Q385G, S392M
modifications: Synthetic Polypeptide sequence of Variant No. 482 of mature Human GLA
B9: 483 (protein)
chain: B2 chain with S392C
modifications: Synthetic Polypeptide sequence of Variant No. 483 of mature Human GLA
B10: 487 (protein)
chain: B2 chain with T389G, S392M
modifications: Synthetic Polypeptide sequence of Variant No. 487 of mature Human GLA
B11: 484 (protein)
chain: B2 chain with S392V
modifications: Synthetic Polypeptide sequence of Variant No. 484 of mature Human GLA

Legend:
Type in all cases: biochemical
[1] = HTP-analysis of yeast culture supernatants, no challenge (MUGal hydrolysis); details: activity of the variant/activity of Rd4BB (SEQ ID NO: 15)
How it was run: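 GLA variants expressed in yeast INVSc1, secreted into SD-Ura broth over 66-84 h at 30° C; clarified supernatants tested without challenge. Supernatant mixed with McIlvaine buffer pH 4.8 and 2 mM MUGal (citrate/KCl, pH 4.6), 37° C for 30-180 min, carbonate-quenched, fluorescence Ex 355/Em 448 nm.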

[2] = HTP-analysis of supernatants pretreated with acid (MUGal hydrolysis); details: activity of the variant/activity of Rd4BB (SEQ ID NO: 15); challenge at pH 3.7
How it was run: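 Fluorescence of MUGal hydrolysis (Ex. 355 nm, Em. 448 nm) is read after sodium carbonate quench. The enzyme source is INVSc1 yeast culture supernatant, first exposed to pH 3.3-4.3 McIlvaine buffer at 37° C. for 1-3 h, then reacted at pH 4.8 for 30-180 minutes.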

[3] = HTP-analysis of supernatants pretreated with base (MUGal hydrolysis); details: activity of the variant/activity of Rd4BB (SEQ ID NO: 15); challenge at pH 9.65
How it was run: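 Supernatants from INVSc1 yeast expressing GLA variants (SD-Ura, 66-84 h, 30° C) were mixed with McIlvaine buffer pH 7.0-8.2 or 200 mM sodium bicarbonate pH 9.1-9.7 and held 1-18 h at 37° C. Residual activity was then measured on MUGal at pH 4.8/4.3, 37° C, 30-180 min, by fluorescence (Ex 355/Em 448 nm).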

Row | Molecule | Relative Activity of GLA Variants After No Challenge (NC) [1] | Relative Activity of GLA Variants After Challenge at pH 3.7 [2] | Relative Activity of GLA Variants After Challenge at pH 9.65 [3]
1 | B1 | + (0.5 to 1.5 relative activity over Rd4BB (SEQ ID NO: 15)) | ++ (>1.5 to 2.5 relative activity over Rd4BB (SEQ ID NO: 15)) | + (0.5 to 1.5 relative activity over Rd4BB (SEQ ID NO: 15))
2 | B2 | + (0.5 to 1.5 relative activity over Rd4BB (SEQ ID NO: 15)) | ++ (>1.5 to 2.5 relative activity over Rd4BB (SEQ ID NO: 15)) | + (0.5 to 1.5 relative activity over Rd4BB (SEQ ID NO: 15))
3 | B3 | + (0.5 to 1.5 relative activity over Rd4BB (SEQ ID NO: 15)) | + (0.5 to 1.5 relative activity over Rd4BB (SEQ ID NO: 15)) | + (0.5 to 1.5 relative activity over Rd4BB (SEQ ID NO: 15))
4 | B4 | + (0.5 to 1.5 relative activity over Rd4BB (SEQ ID NO: 15)) | + (0.5 to 1.5 relative activity over Rd4BB (SEQ ID NO: 15)) | + (0.5 to 1.5 relative activity over Rd4BB (SEQ ID NO: 15))
5 | B5 | + (0.5 to 1.5 relative activity over Rd4BB (SEQ ID NO: 15)) | + (0.5 to 1.5 relative activity over Rd4BB (SEQ ID NO: 15)) | + (0.5 to 1.5 relative activity over Rd4BB (SEQ ID NO: 15))
6 | B6 | + (0.5 to 1.5 relative activity over Rd4BB (SEQ ID NO: 15)) | + (0.5 to 1.5 relative activity over Rd4BB (SEQ ID NO: 15)) | + (0.5 to 1.5 relative activity over Rd4BB (SEQ ID NO: 15))
7 | B7 | + (0.5 to 1.5 relative activity over Rd4BB (SEQ ID NO: 15)) | + (0.5 to 1.5 relative activity over Rd4BB (SEQ ID NO: 15)) | + (0.5 to 1.5 relative activity over Rd4BB (SEQ ID NO: 15))
8 | B8 | + (0.5 to 1.5 relative activity over Rd4BB (SEQ ID NO: 15)) | + (0.5 to 1.5 relative activity over Rd4BB (SEQ ID NO: 15)) | + (0.5 to 1.5 relative activity over Rd4BB (SEQ ID NO: 15))
9 | B9 | + (0.5 to 1.5 relative activity over Rd4BB (SEQ ID NO: 15)) | + (0.5 to 1.5 relative activity over Rd4BB (SEQ ID NO: 15)) | + (0.5 to 1.5 relative activity over Rd4BB (SEQ ID NO: 15))
10 | B10 | + (0.5 to 1.5 relative activity over Rd4BB (SEQ ID NO: 15)) | + (0.5 to 1.5 relative activity over Rd4BB (SEQ ID NO: 15)) | + (0.5 to 1.5 relative activity over Rd4BB (SEQ ID NO: 15))
11 | B11 | + (0.5 to 1.5 relative activity over Rd4BB (SEQ ID NO: 15)) | + (0.5 to 1.5 relative activity over Rd4BB (SEQ ID NO: 15)) | + (0.5 to 1.5 relative activity over Rd4BB (SEQ ID NO: 15))
